The target in assay [1] is T1, extracellular domain of human CD269 (BCMA, TNFRSF17) (human, UniProt Q02223 4-54).
T1 construct: also called hBCMA; human BCMA
T1 sequence: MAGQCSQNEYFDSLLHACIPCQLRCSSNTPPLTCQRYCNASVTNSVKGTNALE
The experiment in a line: SPR, IgG immobilised on GLH chip, BCMA in the mobile phase (n = 3).

In assay [2] the target is T2, extracellular domain of cynomolgous BCMA (cynomolgous, UniProt A0A2K5UD97 1-53).
T2 construct: Used coated on plates in ELISA and in the mobile phase in SPR; also called cyBCMA; cynoBCMA
T2 sequence (A0A2K5UD97 entry or part of it limits assumed, form in doubt): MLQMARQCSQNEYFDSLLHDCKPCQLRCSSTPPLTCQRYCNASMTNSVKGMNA
In words: SPR, IgG immobilised on GLH chip, BCMA in the mobile phase (n = 2).

B1: J22.9-H (antibody, V domains shown)
VH: EVQLVESGGGLVQPGGSLRLSCAASGFTFSRYWMSWVRQAPGKGLVWVGEINPDSSTINYAPSLKDKFTISRDNAKNTLYLQMNSLRAEDTAVYYCASLYYDYGDAMDYWGQGTLVTVSS
VL: EIVMTQSPATLSVSPGERATLSCKASQSVDSNVAWYQQKPGQAPRALIYSASLRFSGIPARFSGSGSGTEFTLTISSLQSEDFAVYYCQQYNNYPLTFGAGTKLELKR
What is called Kd is a measure of binding affinity in units of concentration. Low values mean tighter binding, high ones weaker binding. As for B1, the figures for the Kd in assay [1] and in assay [2] were 15 nM and 200 nM, respectively.

B2: J22.9-FSY (antibody, V domains shown)
VH: EVQLVESGGGLVQPGGSLRLSCAASGFTFSRYWFSWVRQAPGKGLVWVGEINPSSSTINYAPSLKDKFTISRDNAKNTLYLQMNSLRAEDTAVYYCASLYYDYGDAYDYWGQGTLVTVSS
VL: EIVMTQSPATLSVSPGERATLSCKASQSVESNVAWYQQKPGQAPRALIYSASLRFSGIPARFSGSGSGTEFTLTISSLQSEDFAVYYCQQYNNYPLTFGAGTKLELK
For the molecule B2, the Kd in assay [1] was determined as 2.2 nM; in assay [2], 20 nM.

B3: J22.9-ISY (antibody, V domains shown)
VH: EVQLVESGGGLVQPGGSLRLSCAASGFTFSRYWISWVRQAPGKGLVWVGEINPSSSTINYAPSLKDKFTISRDNAKNTLYLQMNSLRAEDTAVYYCASLYYDYGDAYDYWGQGTLVTVSS
VL: EIVMTQSPATLSVSPGERATLSCKASQSVESNVAWYQQKPGQAPRALIYSASLRFSGIPARFSGSGSGTEFTLTISSLQSEDFAVYYCQQYNNYPLTFGAGTKLELK
Regarding B3, the results for the Kd in assay [1] and in assay [2] were 2 nM and 17 nM, respectively.

Values taken from US20190112382A1 (published 2019).
